Data: the domain aggregation screens of Martell et al. (2025)

Experiment: soluble fraction after stress (log2 fold change); higher = more stays soluble; pooled small domains, quantitative proteomics
Conditions: stress: pH 4
Outline: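 With high-throughput quantitative proteomics, pooled custom libraries of small protein domains were measured after pH 4 stress. Each domain's soluble amount after the stress gives a fold change taken as aggregation propensity. Higher log2 values mean more of the domain stayed soluble.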

| Sequence | soluble fraction (log2) |
| --- | --- |
| HMASPRVWKDASSGRTLTGEFVELTKDAVKVRRANGDVVSLPLSRLTEEDITFAKGASETGGA | 0.0565 |
| HMASVLTAKLSEREVDVLNLLARGFTNADIAAQLHLSEGTVRNHVSTIFAKLDVNDRTQAAVIAIRHGL | -0.176 |
| HMASVLTGMLGRVTGELAPKGIVMVGNETWTAVSEDDSVIRIGEPVEVRSVEGLILTVFRRID | -1.55 |
| HMATAADLLQSATGVPRSDALLLLAKLLGVAKERLIAHPETVVSEKTQATFSDWIERVRGGFPTTYLLG | 0.0658 |
| HMATAEETTPLWARNRLSHAIFGPGSVTGEDERSFEVAFDNGDTLNFSKKSAHLYFTAMSSR | -0.808 |
| HMATARPPPPPESRVEVLFDGRWYAGTVVGGALDEHRATVFFDADRLSQVINFAETGIRVLGT | -0.575 |
| HMATEYIIPTVTNKKLEEAIGIAQLRGFEISVDEYKPSDIDEGTVLEQSPAAGTNAKQGDTISVTVSSG | -0.103 |
| HMATFTPYLVRITASVLNIRKGPGTTYAVTGQIKDRGVYTIVEQKGNWGRLKSGAGWISLSYTKK | 0.065 |
| HMATPAFEMYKVRRGDTPAGLAKEWGFPDMASFYRINPDARSDWKRGLQLVKPMNEMAVLQATA | 0.109 |
| HMATPKYMELVRWINEQIESKNLVPGQKMYSENTLKEMFGVSRQTVRHAIGVLENEGVIRRIQGSGTYIN | 0.163 |
| HMATPSTGQVSVVRLNLRVSPSISSPVVTRLTQGDTVKILAASDDGRWYKVATADGRTGWLYTIYITAE | -0.209 |
| HMATQTGTVKWFNEGKGFGFIAPDDGSKDLFAHFSEIKTTGFKTLAEAQRVEFEVTEGRKGLQASNIK | -0.244 |
| HMATRLPFGFAKRFGVLVEGKDDQITVYHKDGLQTAVILEIQRYLARPFRFEAVTPEEFERRLGLAYQS | -0.927 |
| HMATSNDTQITGSLALRFDGSGDTFTVNVNGDDKLEINTEGTVIYKPLTTAPTYVSGGLFFSSSGDFYVG | -0.163 |
| HMATTIDFTVGDDVQVMNGPLESFTGKVTELNEASQKVKVDVVMFGRVTNVELDFVQVKKIT | -0.531 |
| HMATTIEAPMPGKILDVKVNPGQAVSYGQVVLTMEAMKMETEIVAPADGTVASVLVKSGDMVETGAALVSL | -0.268 |
| HMATTMSADWRPSEDAVGILVNAEINARFIEDAIPEFVLYWRERGAVHGAWNSKFIEHIRRQWAKFSAS | -1.31 |
| HMATTPEETILEYINKNNRISKQEIADLMGITRDGVSYHIKKLRKNGLLEWIGSPSNGHWEIIE | -0.52 |
| HMATVHPIRIQGGMTTQQGGKTVWLWVSDEGRLMTEDEIAGESGGTVSSRMVRGVRVLTGTGVIYG | -0.57 |
| HMATVIDVATTLGRPITDPDEQRQVLNWIGKTERIISARLGDLAALDRQILADVISEVVARRARN | -0.726 |
| HMATVNIGNLTFTHKGDYASGTTYAKNDVVYYSTNGNAYIAKQATQGNAPTSTAHWDVFAAGSGG | 0.145 |
| HMAVDAASSTIGKNVEVSVANEKGDYENFNGKVKSASIKDGVVYLELELKDTGEIKEVPYSSLTKIT | 0.355 |
| HMAVDPSVLTRRERQALAWIARGLSNKEVARGLNLAESTVKVHVQSILRKLNLTSRVQAAVYAIEHGIDK | -0.0198 |
| HMAVFRVGDKVKSMEGMIGEVRGINGRLIQVATPYGLRDYYPHQITKVENPLAAAPAPLNEEA | 0.0157 |
| HMAVGVFQKEDGYWGYRFSIIVDGKTIARRKFTDENGSKLRTKSEAVKARAAAMVAARMERVS | 0.24 |
| HMAVIILDEPTLGLDPAVRISLWQAIQSARDSTMSAFLITTHYIKEVADYLSAVKILDHGREVASGNPSAL | -0.905 |

| Sequence | soluble fraction (log2) |
| --- | --- |
| HMAVKLELYRVFKEVAETGNISAAAKNLYISQSAVSQSIKQLETALQARLFARSPRGVTLTGEGQMLYQYV | -0.652 |
| HMAVKNAQIDVQQFFYSKSGEVDFGRKIKAIQSHFTPERLQSFTAAVPPSQWVSQLQVMWDSL | -1.68 |
| HMAVLGIQPVFHRSTGQTVYKSSVNTAKGRVYLGLFPTLTEALEIKLKYMQEHGHTKGITNLTNKLKEL | 0.22 |
| HMAVPFTIDVSQNGRYFIEEDNQVVEVSIGFLEDRFLRIIKSNPDIEVIIRGDAKASYESIAELLAVLQ | -0.782 |
| HMAVQPMDQVKAWLAEDNPADIKLLVPVLQKLDLLDYEQVRGEVADRAGVRKSLLDEAVKGN | -0.119 |
| HMAVRTELLALPAGWHGDASRLSTALAALQGVREAVVIASEGVAYLKVHGHDWDRDGARELLQN | -0.199 |
| HMAVSGRGSIIGGVATVLDDFADSGKVWLEGEAWQARSSVPLKQDQEVVVRAMDGLVLVVEPVA | -0.869 |
| HMAVSNWQKLVSSIQTQLKILALYHGPEDGIYGPNTRSAIMLYEENIGLPVTGEPSRELLAHMLDQTD | -0.194 |
| HMAVTNLTAKQISDTRWRVTWDSTLASPTYYVYRDGLLMMQTRQELYEFDAARGEQVQIDVLDDMAAAPAE | -0.459 |
| HMAWAVRAGEGVLIRAGQPGFSATTRGTALSNGAIGEGVRVRNLGSGKEIQAWVVDKGEVETR | 0.136 |
| HMAWIAVATKEDYSEYEWKELSPTTDWSTQTFDLGDLAGKTIYAVKMFFDHDTDVKDYKFNLGQLSITSN | -1.22 |
| HMAYRLDVRNQTKGTYLVIQKKYWDKEKKQSRTKHHMSLGYVHDLQKLYSDPITHYKEVINQMNAEEKG | 0.0253 |
| HMAYSEEDRRRVREELLTTALKLMSTQGIQHTTVEQVYRSVGISRSFFYAFFPTKEDLIVEAL | -0.0412 |
| HMDAAANTLRILKALSESPMSADRLAELLMEEGSGRNPRTIRRYIRALREAGFGVEHREGRYVL | -0.483 |
| HMDAAEVEATARAMLRRSALNLLAQREQTAFELKQKLSRRFPEQAALLDEVIERLQEQGLQDDTR | -0.527 |
| HMDAEEISILLEKAVLQLPEKQKMIFQLKYFEDLSYKDIQIITGGSIGGLKANYHHAVTKIEKLLS | -0.892 |
| HMDAEETLGARLRRLRQARGLSLAGLAQAAGLSKPSIWAWENGTTAPRRTSLLALARALDVPEQQLTGV | -0.173 |
| HMDAEKHIVTPEAGLRLDRALTDALPNLSRSRVKQLINEGLVTTENKTITAPSYRVKYGDSFEISIPPPT | -0.134 |
| HMDAIIVPSVLKMKPFEAEEKLSALGLRMKINDTVYIDNMKPGVIVEQSPTAEEDVKTDRVIYVIVNA | -0.139 |
| HMDAKQLQSLKNNNEQLAGFIVRLTNFYEGLSPDIDAELSKLRSHLSGKVDYTLATVSINKINQLFMLEP | -1.75 |
| HMDALIWYVSRGQQKFGPFNYFGVLKALQDKSVFEFDYVWKEGTENWVRLAEHELFSQEKVRELLA | -0.679 |
| HMDAMLGEALRLIRVYHDLKQKQAAERLEVSTSYLSEIERGLKTPTLDIIQRYATVFDMPVSSIMFFSENL | -1.19 |
| HMDAMLSEQLREKRGELLIEVDAIAGNALRWATLSAEQQDAWAVYRQALLDVPQQAGFPNDVVWPINPN | -0.982 |
| HMDAPKPDIGMSTDQIRSSLGQPGSQTRLETGGGRIYELWIYLYPDGKELQIYFDNAKVVKMEALS | -0.419 |
| HMDAPLIIAETRVDVPDATVSDAVMMLDLRNTNALLFKNSGSGVLNMVYRRGDGTIGWGEPQ | -0.543 |
| HMDASKVKIEDLGLSTRTENALVAASIRTAGGLARKSEMDLLSTDGLGEKGITEIKKALSDLGLELK | 0.246 |

| Sequence | soluble fraction (log2) |
| --- | --- |
| HMDAVSTMIENLRVKTGKSLADWVGLAKGSGADKHGAMVGWLKSEHGLTHGYANLIAHETFRSAA | 0.0144 |
| HMDAVTPVLSRIRDARFKRMVLPGDEIEISVTLIDTIGKFFNLSGQIRNKDKISLTVNFALALV | 0.0905 |
| HMDDADPYEILGVERDAEDAEIKRAYHDLIRENHPDRLMAEGLPQEMIDVANEKVAFINDAYDRIEKLRGM | -0.89 |
| HMDDENKIEVMINEEKVQLTGKDKYVFVDIFNYIDMDLTRIHGNLVLKLNGENASHNSLLKSGDKIEARWE | -1.92 |
| HMDDERDRLVQQAMEGLSPALREILLLAYFQRMPYNQIAESLRIPLGTVKSRLHAAVAAFAKRWQELNRS | -0.475 |
| HMDDFNLSPREKDVLGHLVKGNSYKMIADELQIGYDTVHSHIKKIYKKLHVNSMSEAVAKALKNKL | -0.26 |
| HMDDGARQLVDQLNRLIANPAVSARIIHGYLILEGRVESEWEKTRTLLLAQVAGLPVIDLITVS | -2.12 |
| HMDDGLTRLTPRENEVLELMAQGRSNTAIAERLVLSYGAVEKNVSSIFTKLDLPLDAGDHRRVLAVLRRLN | -0.677 |
| HMDDGNHTEYIVLEKAKFYDEAGEYEEGRDLVLSFDKYQDNWKLVYTLGVFNKKLNNLEEARKYYKQALE | -0.846 |
| HMDDHKQHLIDFYHSRKRMPTYTEMMALFGYKSKNAVARLVEKMIDAGIVTKDKLGKLLPTTLFDSVPL | -0.0996 |
| HMDDHLRLSDNERISAMSALATHFTEGRLDTSEFDERTLAASQAKSRGDLRPLFDDLPGQLPAALSP | -0.125 |
| HMDDKLKKLEEVFEMQEGTLTPDMRLDELEEWDSMTRLSLIVMMEDDYGKKVKRSEVMNYTTVQDIVDSME | -0.946 |
| HMDDLSPEENKVIGAQVREELARRRLSRQHLADKAKISLSTLEKALTGTRPFTLASVVRIEEALQLQLRK | 0.344 |
| HMDDPEISQEQRQQLFRTAKEHFGASGNDVLKEILADHGRDSTVKMPVSVFAEIMGDLLKRALD | -0.121 |
| HMDDPQAELLARAVRRVALAAAERTRRNEYGGVYLGLFRQFGISSYRRTPPARLHEALEWLERWRGDLM | -0.378 |
| HMDDTVILPIQINGKRRAEISVPKAMPASEVEKLALANEDVLRFLAGQPIKKLIVVPGRIINVV | ≥ 0.43 |
| HMDDVGERIRKIREEKNLSLDEISKMTGFDVEFLAKIENKERQPQLGTVIKLSKALDSAFGRL | -0.0445 |
| HMDDVGYLRKRLQQALAQLSDDLRNTYTLFQIGKQSIKQIAAETGASESLVKVRIHRAKQKLQELLADLQ | -0.054 |
| HMDEDLQEALRKLNPIQANERKLLLKMLEQHRWNVSSVAKAFDVSRNTLYRRLHKLHIPLSNPSE | 0.172 |
| HMDEEAIELTQEVMKLPPKQREVILLYYYHGLTGKEIAKALGISGAAVSKRLKQAKNQLHFALK | 0.0819 |
| HMDEEVLVVQEGGERLDVFVAANAEGITRSFVQNLIKKGDVTVDGAPRKANYRLRSGQVVRFSLPEP | 0.293 |
| HMDEFEEGVITYFNSEKGFGFIRESKTKQSVFVHSKQLSSPVQLNDKVKFIVNKGLKGLEATEVSVI | ≥ 0.43 |
| HMDEFQLTPREQEILGLLVKGYTYKRIASELNLSYATVNRHVSNVYVKLRVHSVNEAVALAVRKGL | -0.543 |
| HMDEKLAHKLVSDFRQAAASLERFPFRNPVLRSEVFTVEKYRKLVFDKYHILLYQVKDQVVYVEYVIDGRQ | ≥ 0.43 |
